This is an account of results in the supplement of paper PMC7125110.

± gives the standard error. This sample holds only a part of the variants without activity. Some results are limits rather than exact numbers.

The chains are these.
B1: glmS ribozyme (parent)
chain: AUAAAAGCGCCAGAACUACAGAAAUGUAGUUGACGAGGAGGAGGUUUAUCGAAUUUUCGGCGGAUGCCUCCAAA

Common to all, as to settings: with glucosamine-6-phosphate
Data set [1] covers variants of B1. Kind of data set: self-cleavage kobs at 40 uM GlcN6P; higher = faster cleavage; RNA array. The procedure, abridged:
(§1)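 Glucosamine-6-phosphate in HEPES/KCl/Mg(OAc)2 buffer, at 40 μM to 10 mM, was flowed over barcoded ribozyme variants transcribed in situ by E. coli RNA polymerase on sequenced MiSeq chips. Tracking was through a hybridised Cy3 probe at 37 °C. kobs, kcat and KM came from exponential decay fits and weighted Michaelis–Menten fits of normalised per-tile medians.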

In data set [2] the parent is B1. Kind of data set: self-cleavage kobs at 160 uM GlcN6P; higher = faster cleavage; RNA array. The procedure, abridged:
as §1

In data set [3] the parent is B1. Kind of data set: self-cleavage kobs at 640 uM GlcN6P; higher = faster cleavage; RNA array. The gist of the method: as §1
Variants of B1 are the subject of data set [4]. Kind of data set: self-cleavage kobs at 2500 uM GlcN6P; higher = faster cleavage; RNA array. The procedure, abridged:
as §1

In data set [5] the parent is B1. Nature of the data set: self-cleavage kobs at 10000 uM GlcN6P; higher = faster cleavage; RNA array. The gist of the method: as §1

As for C34G A64U, the “self-cleavage kobs at 40 uM GlcN6P” value with glucosamine-6-phosphate [1] is less than 1e-05 s⁻¹. Besides, the “self-cleavage kobs at 160 uM GlcN6P” value with glucosamine-6-phosphate [2] is less than 1e-05 s⁻¹. Further, the “self-cleavage kobs at 640 uM GlcN6P” value with glucosamine-6-phosphate [3] is less than 1e-05 s⁻¹. The “self-cleavage kobs at 2500 uM GlcN6P” value in the data set with glucosamine-6-phosphate [4] was less than 1e-05 s⁻¹. Further, in the data set with glucosamine-6-phosphate [5], the “self-cleavage kobs at 10000 uM GlcN6P” value is less than 1e-05 s⁻¹.

For the variant G37A C68A, the “self-cleavage kobs at 40 uM GlcN6P” value in the data set with glucosamine-6-phosphate [1] was less than 1e-05 s⁻¹. Further, the “self-cleavage kobs at 160 uM GlcN6P” value with glucosamine-6-phosphate [2] is less than 1e-05 s⁻¹. Also, in the data set with glucosamine-6-phosphate [3], the “self-cleavage kobs at 640 uM GlcN6P” value was less than 1e-05 s⁻¹. In addition, the “self-cleavage kobs at 2500 uM GlcN6P” value with glucosamine-6-phosphate [4] was less than 1e-05 s⁻¹. Moreover, in the data set with glucosamine-6-phosphate [5], the “self-cleavage kobs at 10000 uM GlcN6P” value is less than 1e-05 s⁻¹.

For C8U G32C, the “self-cleavage kobs at 40 uM GlcN6P” value with glucosamine-6-phosphate [1] was less than 1e-05 s⁻¹. Also, the “self-cleavage kobs at 160 uM GlcN6P” value with glucosamine-6-phosphate [2] is less than 1e-05 s⁻¹. The “self-cleavage kobs at 640 uM GlcN6P” value with glucosamine-6-phosphate [3] was less than 1e-05 s⁻¹. Also, in the data set with glucosamine-6-phosphate [4], the “self-cleavage kobs at 2500 uM GlcN6P” value was less than 1e-05 s⁻¹. The “self-cleavage kobs at 10000 uM GlcN6P” value with glucosamine-6-phosphate [5] is less than 1e-05 s⁻¹.

G43U G66C: in the data set with glucosamine-6-phosphate [1], the “self-cleavage kobs at 40 uM GlcN6P” value is less than 1e-05 s⁻¹. In the data set with glucosamine-6-phosphate [2], the “self-cleavage kobs at 160 uM GlcN6P” value was less than 1e-05 s⁻¹. For the same variant, in the data set with glucosamine-6-phosphate [4], the “self-cleavage kobs at 2500 uM GlcN6P” value is less than 1e-05 s⁻¹.

As for A33U G35U, the “self-cleavage kobs at 40 uM GlcN6P” value with glucosamine-6-phosphate [1] is less than 1e-05 s⁻¹. Also, the “self-cleavage kobs at 640 uM GlcN6P” value in the data set with glucosamine-6-phosphate [3] is less than 1e-05 s⁻¹. In addition, the “self-cleavage kobs at 2500 uM GlcN6P” value in the data set with glucosamine-6-phosphate [4] was less than 1e-05 s⁻¹. In addition, the “self-cleavage kobs at 10000 uM GlcN6P” value with glucosamine-6-phosphate [5] was less than 1e-05 s⁻¹.

For the variant U31A G51A U56A C58U G63U U65G, the “self-cleavage kobs at 40 uM GlcN6P” value with glucosamine-6-phosphate [1] is less than 1e-05 s⁻¹.

As to A6U A48G, in the data set with glucosamine-6-phosphate [1], the “self-cleavage kobs at 40 uM GlcN6P” value was less than 1e-05 s⁻¹. Further, the “self-cleavage kobs at 160 uM GlcN6P” value with glucosamine-6-phosphate [2] is less than 1e-05 s⁻¹. Besides, in the data set with glucosamine-6-phosphate [4], the “self-cleavage kobs at 2500 uM GlcN6P” value was less than 1e-05 s⁻¹. The “self-cleavage kobs at 10000 uM GlcN6P” value with glucosamine-6-phosphate [5] was less than 1e-05 s⁻¹.

For U30C U49A G60C, in the data set with glucosamine-6-phosphate [1], the “self-cleavage kobs at 40 uM GlcN6P” value is less than 1e-05 s⁻¹. Moreover, the “self-cleavage kobs at 640 uM GlcN6P” value with glucosamine-6-phosphate [3] was less than 1e-05 s⁻¹.

With A39C G40C U47A U56G, the “self-cleavage kobs at 40 uM GlcN6P” value with glucosamine-6-phosphate [1] is less than 1e-05 s⁻¹.

Take U31A G37A C50G A53U C67U: the “self-cleavage kobs at 40 uM GlcN6P” value with glucosamine-6-phosphate [1] came to 5.38e-05 ± 1.9e-05 s⁻¹.

As for C8G U46A C70G, the “self-cleavage kobs at 40 uM GlcN6P” value with glucosamine-6-phosphate [1] was less than 1e-05 s⁻¹.

G43C A48U G51C G63A C71U: in the data set with glucosamine-6-phosphate [1], the “self-cleavage kobs at 40 uM GlcN6P” value is less than 1e-05 s⁻¹. The “self-cleavage kobs at 10000 uM GlcN6P” value with glucosamine-6-phosphate [5] is less than 1e-05 s⁻¹.

For A48U C61A C67U, the “self-cleavage kobs at 40 uM GlcN6P” value with glucosamine-6-phosphate [1] was less than 1e-05 s⁻¹. Moreover, in the data set with glucosamine-6-phosphate [4], the “self-cleavage kobs at 2500 uM GlcN6P” value was less than 1e-05 s⁻¹. Further, the “self-cleavage kobs at 10000 uM GlcN6P” value in the data set with glucosamine-6-phosphate [5] was less than 1e-05 s⁻¹.

Turning to C11U C16A G44C, the “self-cleavage kobs at 40 uM GlcN6P” value with glucosamine-6-phosphate [1] is less than 1e-05 s⁻¹. Further, in the data set with glucosamine-6-phosphate [3], the “self-cleavage kobs at 640 uM GlcN6P” value is less than 1e-05 s⁻¹.

For the variant A6C G29C A53U, in the data set with glucosamine-6-phosphate [1], the “self-cleavage kobs at 40 uM GlcN6P” value is less than 1e-05 s⁻¹. Further, the “self-cleavage kobs at 160 uM GlcN6P” value with glucosamine-6-phosphate [2] is less than 1e-05 s⁻¹.

Take A12U C68U: in the data set with glucosamine-6-phosphate [1], the “self-cleavage kobs at 40 uM GlcN6P” value is 0.000326 ± 3.4e-05 s⁻¹. Further, the “self-cleavage kobs at 160 uM GlcN6P” value in the data set with glucosamine-6-phosphate [2] was 0.000964 ± 9.8e-05 s⁻¹. In the data set with glucosamine-6-phosphate [3], the “self-cleavage kobs at 640 uM GlcN6P” value worked out at 0.00195 ± 0.00021 s⁻¹. Besides, the “self-cleavage kobs at 2500 uM GlcN6P” value with glucosamine-6-phosphate [4] came out at 0.0112 ± 0.002 s⁻¹. Also, in the data set with glucosamine-6-phosphate [5], the “self-cleavage kobs at 10000 uM GlcN6P” value stood at 0.00957 ± 0.0013 s⁻¹.

As to G9C G51A A52U C70G, the “self-cleavage kobs at 40 uM GlcN6P” value with glucosamine-6-phosphate [1] was less than 1e-05 s⁻¹. In addition, in the data set with glucosamine-6-phosphate [3], the “self-cleavage kobs at 640 uM GlcN6P” value was less than 1e-05 s⁻¹.

As for U30C G59C, in the data set with glucosamine-6-phosphate [1], the “self-cleavage kobs at 40 uM GlcN6P” value is less than 1e-05 s⁻¹. For the same variant, the “self-cleavage kobs at 640 uM GlcN6P” value in the data set with glucosamine-6-phosphate [3] was less than 1e-05 s⁻¹. In addition, the “self-cleavage kobs at 2500 uM GlcN6P” value in the data set with glucosamine-6-phosphate [4] was less than 1e-05 s⁻¹. The “self-cleavage kobs at 10000 uM GlcN6P” value with glucosamine-6-phosphate [5] is less than 1e-05 s⁻¹.

Turning to G29U G44C U46A, the “self-cleavage kobs at 40 uM GlcN6P” value with glucosamine-6-phosphate [1] was less than 1e-05 s⁻¹.

Regarding U30C A64C, the “self-cleavage kobs at 40 uM GlcN6P” value in the data set with glucosamine-6-phosphate [1] was less than 1e-05 s⁻¹. The “self-cleavage kobs at 640 uM GlcN6P” value with glucosamine-6-phosphate [3] is less than 1e-05 s⁻¹. In the data set with glucosamine-6-phosphate [5], the “self-cleavage kobs at 10000 uM GlcN6P” value is less than 1e-05 s⁻¹.

As to G38U U69G, the “self-cleavage kobs at 40 uM GlcN6P” value with glucosamine-6-phosphate [1] was determined as 0.000121 ± 1.9e-05 s⁻¹. In addition, the “self-cleavage kobs at 640 uM GlcN6P” value with glucosamine-6-phosphate [3] amounted to 9.8e-05 ± 4.7e-05 s⁻¹. The “self-cleavage kobs at 2500 uM GlcN6P” value in the data set with glucosamine-6-phosphate [4] came out at 7.1e-05 ± 1.6e-05 s⁻¹. Besides, the “self-cleavage kobs at 10000 uM GlcN6P” value in the data set with glucosamine-6-phosphate [5] was found to be 4.47e-05 ± 9.9e-06 s⁻¹.

On to A15U G38A U56C, for which the “self-cleavage kobs at 40 uM GlcN6P” value in the data set with glucosamine-6-phosphate [1] was less than 1e-05 s⁻¹.

On to G35C G38U C50G C68A C70A, for which the “self-cleavage kobs at 40 uM GlcN6P” value in the data set with glucosamine-6-phosphate [1] came out at 0.000136 ± 3.2e-05 s⁻¹. Further, the “self-cleavage kobs at 10000 uM GlcN6P” value with glucosamine-6-phosphate [5] is 0.000258 ± 3.9e-05 s⁻¹.

G29U A48C G63U: the “self-cleavage kobs at 40 uM GlcN6P” value with glucosamine-6-phosphate [1] was less than 1e-05 s⁻¹. The “self-cleavage kobs at 10000 uM GlcN6P” value with glucosamine-6-phosphate [5] was less than 1e-05 s⁻¹.

Turning to A15G A42G C68U, in the data set with glucosamine-6-phosphate [1], the “self-cleavage kobs at 40 uM GlcN6P” value was 0.000393 ± 0.00011 s⁻¹. In the data set with glucosamine-6-phosphate [5], the “self-cleavage kobs at 10000 uM GlcN6P” value turned out to be 0.0101 ± 0.0045 s⁻¹.
